# In patent publication US20120177651A1 (published 2012):
# How the values were obtained:
# recombinant human HGF [1] = target: T1, recombinant human HGF (human, UniProt P14210 32-728); assay: cell-based or functional assay; set-up: unit not given beside the values
# human VEGF = target: T2, human VEGF (human, UniProt P15692-4 27-191, limits assumed); assay: SPR (Biacore T100), antibody captured on Protein A C1 chip, human VEGF as analyte
# T2 construct: The background says that VEGF-A isoforms form homodimers
# T2 sequence (P15692 other isoform, or with tags, fused parts or gaps limits assumed): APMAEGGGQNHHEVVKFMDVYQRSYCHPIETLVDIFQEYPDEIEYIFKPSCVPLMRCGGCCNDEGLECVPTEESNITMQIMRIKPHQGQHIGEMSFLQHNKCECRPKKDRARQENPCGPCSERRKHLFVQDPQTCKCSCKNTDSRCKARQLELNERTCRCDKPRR
# recombinant human HGF [2] = target: T1, recombinant human HGF; assay: SPR (Biacore T100), human HGF immobilised on CM5 chip, antibody as analyte, 1:1 binding model, 25 C
# recombinant human HGF [3] = target: T1, recombinant human HGF; assay: SPR (Biacore T100), human HGF immobilised on CM5 chip, antibody as analyte, bivalent analyte model, 25 C
# recombinant human HGF [4] = target: T1, recombinant human HGF; assay: ELISA on plate-coated recombinant human HGF, detection with anti-human kappa light chain peroxidase conjugate, Abs 490 nm
# recombinant human HGF [5] = target: T1, recombinant human HGF; assay: cell-based or functional assay
# T1 sequence (P14210 32-728 limits assumed): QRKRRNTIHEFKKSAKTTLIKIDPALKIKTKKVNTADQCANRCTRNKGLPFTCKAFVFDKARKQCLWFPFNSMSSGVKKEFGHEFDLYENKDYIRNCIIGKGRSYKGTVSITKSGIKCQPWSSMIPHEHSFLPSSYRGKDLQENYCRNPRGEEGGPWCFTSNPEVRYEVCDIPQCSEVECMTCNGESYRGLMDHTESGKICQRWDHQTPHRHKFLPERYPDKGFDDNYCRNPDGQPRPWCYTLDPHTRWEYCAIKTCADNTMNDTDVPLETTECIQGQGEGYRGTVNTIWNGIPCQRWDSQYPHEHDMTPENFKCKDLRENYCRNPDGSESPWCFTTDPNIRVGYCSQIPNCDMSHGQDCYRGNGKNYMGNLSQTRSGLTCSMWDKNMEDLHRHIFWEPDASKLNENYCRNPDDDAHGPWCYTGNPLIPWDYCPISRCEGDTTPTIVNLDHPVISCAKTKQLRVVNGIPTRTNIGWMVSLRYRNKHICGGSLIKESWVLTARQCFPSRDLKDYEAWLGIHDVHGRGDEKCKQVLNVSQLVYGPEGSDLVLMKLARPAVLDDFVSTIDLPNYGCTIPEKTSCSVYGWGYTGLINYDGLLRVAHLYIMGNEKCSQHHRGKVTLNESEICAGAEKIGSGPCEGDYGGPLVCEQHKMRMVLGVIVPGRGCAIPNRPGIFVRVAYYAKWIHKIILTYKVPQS
Binder,"IC50, MET phosphorylation in Bx-PC3 cells (mean of three experiments) (recombinant human HGF [1])",binding result (human VEGF),Kd (recombinant human HGF [2]) [nM],koff (recombinant human HGF [2]) [s⁻¹],kon (recombinant human HGF [2]) [M⁻¹ s⁻¹],Kd (recombinant human HGF [3]) [nM],koff (recombinant human HGF [3]) [s⁻¹],kon (recombinant human HGF [3]) [M⁻¹ s⁻¹],EC50 (read off the curve) (recombinant human HGF [4]) [nM],"IC50, % phospho AKT in Bx-PC3 cells (MSD, mean of two experiments) (recombinant human HGF [5]) [nM]","IC50, % phospho ERK in Bx-PC3 cells (MSD, mean of two experiments) (recombinant human HGF [5]) [nM]","IC50, % phospho MET in Bx-PC3 cells (MSD, mean of two experiments) (recombinant human HGF [5]) [nM]","IC50, Bx-PC3 cell migration with 25 ng/ml HGF (Oris, mean of three experiments) (recombinant human HGF [5]) [nM]"
"BPC2014 (antibody, human IgG1, kappa, V domains shown, Full human IgG1 (Fc wild type) / kappa anti-HGF antibody, expressed in HEK 293-6E cells; also called HE2B8-4; anti-HGF mAb LRMR2B8) VH: QVQLVQPGAEVKKPGTSVKLSCKASGYTFTTYWMHWVRQAPGQGLEWIGEINPTNGHTNYNQKFQGRATLTVDKSTSTAYMELSSLRSEDTAVYYCARNYVGSIFDYWGQGTLVTVSS VL: DIVMTQSPDSLAMSLGERVTLNCKASENVVSYVSWYQQKPGQSPKLLIYGASNRESGVPDRFSGSGSATDFTLTISSVQAEDVADYHCGQSYNYPYTFGQGTKLEIKR",4.5,no binding (tested: human VEGF up to 256 nM),1.54,0.00011,71400,1.62,0.000204,126000,~1,,,,
"BPC2013 (antibody, human IgG1, kappa, V domains shown, Full human IgG1 (Fc wild type) / kappa anti-HGF antibody, expressed in HEK 293-6E cells; also called 2.12.1; anti-HGF mAb 2.12.1) VH: QVQLQESGPGLVKPSETLSLTCTVSGGSISIYYWSWIRQPPGKGLEWIGYVYYSGSTNYNPSLKSRVTISVDTSKNQFSLKLNSVTAADTAVYYCARGGYDFWSGYFDYWGQGTLVTVSS VL: not shown",3.6,no binding (tested: human VEGF up to 256 nM),0.88,0.000122,140000,0.83,0.000202,242000,~1,,,,
"BPC2015 (antibody, human IgG1, kappa, V domains shown, Full human IgG1 (Fc wild type) / kappa anti-HGF antibody, expressed in HEK 293-6E cells; also called HuL2G7; anti-HGF mAb HuL2G7) VH: EVQLVQSGAEVKKPGASVKVSCKVSGYTFSGNWIEWVRQAPGKGLEWIGEILPGSGNTNYNEKFKGKATMTADTSTDTAYMELSSLRSEDTAVYYCARGGHYYGSSWDYWGQGTLVTVSS VL: DIVMTQSPSSLSASVGDRVTITCKASENVVTYVSWYQQKPGKAPKLLIYGASNRYTGVPDRFSGSGSGTDFTLTISSLQPEDFATYYCGQGYSYPYTFGQGTKLEIKR",4.2,,0.44,8.19e-05,186000,0.58,0.000132,228000,~0.7,0.63,0.98,0.4,0.33
